In data set [1] the test system is MCF7. In words: percentage of EdU-negative (G0-arrested) nuclei per well, 72 h; higher = more G0 arrest. Conditions: reference: sequence is the full UniProt precursor, the tested protein was the secreted form or ectodomain.
The test system of data set [2] is hTERT-HMEC. Described as above. The note with it: reference: sequence is the full UniProt precursor, the tested protein was the secreted form or ectodomain.
[3] abbreviates: protein concentration 0.0173575 µM.
[4] abbreviates: protein concentration 0.173575 µM.
Setting [5] is: protein concentration 0.0225 µM.
[6] abbreviates: protein concentration 0.0257143 µM.
Setting [7] is: protein concentration 0.257143 µM.
Where [8] appears, read: protein concentration 0.0357143 µM.
Setting [9] is: protein concentration 0.357143 µM.
[10] abbreviates: protein concentration 0.00625 µM.
Setting [11] is: protein concentration 0.0625 µM.

± gives the standard deviation of the averaged measurements.
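Further: secreted proteins added to cultured cells, EdU pulse at the end, nuclei found by Hoechst imaging, EdU status from nuclear versus surrounding ring intensity ratio, PBS as neutral control.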

For “MRAAPLLLARAASLSLGFLFLLFFWLDRSVLAKELKFVTLVFRHGDRSPIDTFPTDPIKESSWPQGFGQLTQLGMEQHYELGEYIRKRYRKFLNESYKHEQVYIRSTDVDRTLMSAMTNLAALFPPEGVSIWNPILLWQPIPVHTVPLSEDQLLYLPFRNCPRFQELESETLKSEEFQKRLHPYKDFIATLGKLSGLHGQDLFGIWSKVYDPLYCESVHNFTLPSWATEDTMTKLRELSELSLLSLYGIHKQKEKSRLQGGVLVNEILNHMKRATQIPSYKKLIMYSAHDTTVSGLQMALDVYNGLLPPYASCHLTELYFEKGEYFVEMYYRNETQHEPYPLMLPGCSPSCPLERFAELVGPVIPQDWSTECMTTNSHQGTEDSTD”, the “percentage of EdU-negative” value in data set [1] (setting [3]) was determined as 26.5 ± 0.46%; in data set [1] (setting [4]), 27.8 ± 1.6%; in data set [2] (setting [3]), 5.15 ± 0.62%; in data set [2] (setting [4]), 5.55 ± 0.26%.
With “MTLTLSVLICLGLSVGPRTCVQAGTLPKPTLWAEPASVIARGKPVTLWCQGPLETEEYRLDKEGLPWARKRQNPLEPGAKAKFHIPSTVYDSAGRYRCYYETPAGWSEPSDPLELVATGFYAEPTLLALPSPVVASGGNVTLQCDTLDGLLTFVLVEEEQKLPRTLYSQKLPKGPSQALFPVGPVTPSCRWRFRCYYYYRKNPQVWSNPSDLLEILVPGVSRKPSLLIPQGSVVARGGSLTLQCRSDVGYDIFVLYKEGEHDLVQGSGQQPQAGLSQANFTLGPVSRSHGGQYRCYGAHNLSPRWSAPSDPLDILIAGLIPDIPALSVQPGPKVASGENVTLLCQSWHQIDTFFLTKEGAAHPPLCLKSKYQSYRHQAEFSMSPVTSAQGGTYRCYSAIRSYPYLLSSPSYPQELVVSGPSGDPSLSPTGSTPTPGPEDQPLTPTGLDPQSGLGRHLGVVTGVSVAFVLLLFLLLFLLLRHRHQSKHRTSAHFYRPAGAAGPEPKDQGLQKRASPVADIQEEILNAAVKDTQPKDGVEMDAPAAASEAPQDVTYAQLHSLTLRREATEPPPSQEREPPAEPSIYAPLAIH”, the “percentage of EdU-negative” value in data set [1] (setting [5]) was 26.64 ± 0.18%; in data set [1] (protein concentration 0.225 µM) it was 24.8 ± 1.6%; in data set [2] (setting [5]), 5.56 ± 0.57%; in data set [2] (protein concentration 0.225 µM), 4.64 ± 0.082%.
As for “MGSGPRGALSLLLLLLAPPSRPAAGCPAPCSCAGTLVDCGRRGLTWASLPTAFPVDTTELVLTGNNLTALPPGLLDALPALRTAHLGANPWRCDCRLVPLRAWLAGRPERAPYRDLRCVAPPALRGRLLPYLAEDELRAACAPGPLCWGALAAQLALLGLGLLHALLLVLLLCRLRRLRARARARAAARLSLTDPLVAERAGTDES”, the “percentage of EdU-negative” value in data set [1] (setting [5]) amounted to 23.5 ± 3%; in data set [1] (protein concentration 0.225 µM), 27.189 ± 0.018%; in data set [2] (setting [5]) it was 5.41 ± 0.22%; in data set [2] (protein concentration 0.225 µM), 6.21 ± 0.79%.
In the same order, the values of “MVSRMVSTMLSGLLFWLASGWTPAFAYSPRTPDRVSEADIQRLLHGVMEQLGIARPRVEYPAHQAMNLVGPQSIEGGAHEGLQHLGPFGNIPNIVAELTGDNIPKDFSEDQGYPDPPNPCPVGKTADDGCLENTPDTAEFSREFQLHQHLFDPEHDYPGLGKWNKKLLYEKMKGGERRKRRSVNPYLQGQRLDNVVAKKSVPHFSDEDKDPE” are 26.6 ± 1.8%, 25.7 ± 2.2%, 5.414 ± 0.019% and 5.28 ± 0.35%.
On to “MKPWILLLVMFISGVVMLLPVLGSFWNKDPFLDMIRETEQCWVQPPYKYCEKRCTKIMTCVRPNHTCCWTYCGNICLDNEEPLKSMLNP [Q8NEX5]”, for which the “percentage of EdU-negative” value in data set [1] (setting [6]) stood at 26 ± 0.26%; in data set [1] (setting [7]) it was 26.31 ± 0.064%; in data set [2] (setting [6]), 5.54 ± 0.81%; in data set [2] (setting [7]), 5.1 ± 0.81%.
As for “MAPRGCIVAVFAIFCISRLLCSHGAPVAPMTPYLMLCQPHKRCGDKFYDPLQHCCYDDAVVPLARTQTCGNCTFRVCFEQCCPWTFMVKLINQNCDSARTSDDRLCRSVS [Q6UW32]”, the “percentage of EdU-negative” value was found to be 24.2 ± 1.9% in data set [1] (setting [8]), 25.5 ± 0.59% in data set [1] (setting [9]), 4.73 ± 0.98% in data set [2] (setting [8]) and 5.65 ± 1.1% in data set [2] (setting [9]).
Take “MDLSLLWVLLPLVTMAWGQYGDYGYPYQQYHDYSDDGWVNLNRQGFSYQCPQGQVIVAVRSIFSKKEGSDRQWNYACMPTPQSLGEPTECWWEEINRAGMEWYQTCSNNGLVAGFQSRYFESVLDREWQFYCCRYSKRCPYSCWLTTEYPGHYGEEMDMISYNYDYYIRGATTTFSAVERDRQWKFIMCRMTEYDCEFANV”: the “percentage of EdU-negative” value worked out at 25.1 ± 0.98% in data set [1] (setting [5]), 26.2 ± 0.3% in data set [1] (protein concentration 0.225 µM), 5.38 ± 0.62% in data set [2] (setting [5]) and 4.92 ± 0.97% in data set [2] (protein concentration 0.225 µM).
With “MKVWLLLGLLLVHEALEDVTGQHLPKNKRPKEPGENRIKPTNKKVKPKIPKMKDRDSANSAPKTQSIMMQVLDKGRFQKPAATLSLLAGQTVELRCKGSRIGWSYPAYLDTFKDSRLSVKQNERYGQLTLVNSTSADTGEFSCWVQLCSGYICRKDEAKTGSTYIFFTEKGELFVPSPSYFDVVYLNPDRQAVVPCRVTVLSAKVTLHREFPAKEIPANGTDIVYDMKRGFVYLQPHSEHQGVVYCRAEAGGRSQISVKYQLLYVAVPSGPPSTTILASSNKVKSGDDISVLCTVLGEPDVEVEFTWIFPGQKDERPVTIQDTWRLIHRGLGHTTRISQSVITVEDFETIDAGYYICTAQNLQGQTTVATTVEFS”, the “percentage of EdU-negative” value in data set [1] (setting [10]) stood at 27.9 ± 0.57%; in data set [1] (setting [11]), 29.4 ± 1%; in data set [2] (setting [10]), 4.49 ± 0.2%; in data set [2] (setting [11]) it was 5.36 ± 0.45%.

Values taken from the supplement of paper PMC11316812.
